± gives the standard deviation of the averaged measurements.
Experiment: total protein half-life in vivo (active degradation + dilution); higher = more stable protein
[1] = E. coli NCM3722 delta-clpP delta-lon delta-hslV, growth: N-lim chemostat, doubling time 6 h
[2] = E. coli NCM3722 delta-clpP, growth: N-lim chemostat, doubling time 6 h
[3] = E. coli NCM3722 delta-hslV, growth: N-lim chemostat, doubling time 6 h
[4] = E. coli NCM3722 delta-lon, growth: N-lim chemostat, doubling time 6 h
[5] = E. coli NCM3722 delta-smpB, growth: N-lim chemostat, doubling time 6 h
[6] = wild type E. coli NCM3722, growth: C-lim chemostat, doubling time 3 h
[7] = wild type E. coli NCM3722, growth: C-lim chemostat, doubling time 6 h
[8] = wild type E. coli NCM3722, growth: C-lim chemostat, doubling time 12 h
[9] = wild type E. coli NCM3722, growth: N-lim chemostat, doubling time 6 h
[10] = wild type E. coli NCM3722, growth: N-lim chemostat, doubling time 12 h
[11] = wild type E. coli NCM3722, growth: P-lim chemostat, doubling time 6 h
[12] = wild type E. coli NCM3722, growth: P-lim chemostat, doubling time 12 h

| Sequence | total protein half-life in vivo [1] | total protein half-life in vivo [2] | total protein half-life in vivo [3] | total protein half-life in vivo [4] | total protein half-life in vivo [5] | total protein half-life in vivo [6] | total protein half-life in vivo [7] | total protein half-life in vivo [8] | total protein half-life in vivo [9] | total protein half-life in vivo [10] | total protein half-life in vivo [11] | total protein half-life in vivo [12] |
| --- | --- | --- | --- | --- | --- | --- | --- | --- | --- | --- | --- | --- |
| MAYTTFSQTKNDQLKEPMFFGQPVNVARYDQQKYDIFEKLIEKQLSFFWRPEEVDVSRDRIDYQALPEHEKHIFISNLKYQTLLDSIQGRSPNVALLPLISIPELETWVETWAFSETIHSRSYTHIIRNIVNDPSVVFDDIVTNEQIQKRAEGISSYYDELIEMTSYWHLLGEGTHTVNGKTVTVSLRELKKKLYLCLMSVNALEAIRFYVSFACSFAFAERELMEGNAKIIRLIARDEALHLTGTQHMLNLLRSGADDPEMAEIAEECKQECYDLFVQAAQQEKDWADYLFRDGSMIGLNKDILCQYVEYITNIRMQAVGLDLPFQTRSNPIPWINTWLVSDNVQVAPQEVEVSSYLVGQIDSEVDTDDLSNFQL | 4.55 ± 0.57 h | 4.92 ± 1.1 h | 3.45 ± 0.054 h | 4.25 ± 0.52 h | 3.62 ± 0.26 h | 3.04 ± 0.28 h | 5.7 ± 0.76 h | 9.25 ± 0.099 h | 3.415 ± 0.022 h | 5.12 ± 0.56 h | 5.24 ± 0.12 h | 9.5 ± 0.26 h |
| MRRILSVLLENESGALSRVIGLFSQRGYNIESLTVAPTDDPTLSRMTIQTVGDEKVLEQIEKQLHKLVDVLRVSELGQGAHVEREIMLVKIQASGYGRDEVKRNTEIFRGQIIDVTPSLYTVQLAGTSGKLDAFLASIRDVAKIVEVARSGVVGLSRGDKIMR | 5.652 ± 0.022 h | 6.01 ± 0.31 h | 5.93 ± 0.45 h | 5.9 ± 0.55 h | 5.37 ± 0.21 h | 3.07 ± 0.047 h | 5.93 ± 0.13 h | 10.5 ± 0.55 h | 5.72 ± 0.27 h | 9.51 ± 0.46 h | 5.98 ± 0.1 h | 12.4 ± 0.78 h |
| MLLEQGWLVGARRVPSPHYDCRPDDETPTLLVVHNISLPPGEFGGPWIDALFTGTIDPQAHPFFAEIAHLRVSAHCLIRRDGEIVQYVPFDKRAWHAGVSQYQGRERCNDFSIGIELEGTDTLAYTDAQYQQLAAVTRALIDCYPDIAKNMTGHCDIAPDRKTDPGPAFDWARFRVLVSKETT | 5.19 ± 0.54 h | 3.72 h | 3.07 ± 0.013 h | 3.75 ± 0.89 h | 2.96 ± 0.27 h | 3.18 ± 0.31 h | 4.11 ± 0.3 h | 7.89 ± 1.5 h | 2.88 ± 0.77 h | 5.25 ± 0.51 h | 4.46 ± 0.12 h | 9.44 ± 0.099 h |
| MKSVFTISASLAISLMLCCTAQANDHKLLGAIAMPRNETNDLALKLPVCRIVKRIQLSADHGDLQLSGASVYFKAARSASQSLNIPSEIKEGQTTDWININSDNDNKRCVSKITFSGHTVNSSDMATLKIIGDD |  | 3.9 h |  |  | 5.9 h |  | 4.34 h |  |  | 13 h |  | 8.91 h |
| MDLLIVLTYVALAWAVFKIFRIPVNQWTLATAALGGVFLVSGLILLMNYNHPYTFTAQKAVIAIPITPQVTGIVTEVTDKNNQLIQKGEVLFKLDPVRYQARVDRLQADLMTATHNIKTLRAQLTEAQANTTQVSAERDRLFKNYQRYLKGSQAAVNPFSERDIDDARQNFLAQDALVKGSVAEQAQIQSQLDSMVNGEQSQIVSLRAQLTEAKYNLEQTVIRAPSNGYVTQVLIRPGTYAAALPLRPVMVFIPEQKRQIVAQFRQNSLLRLKPGDDAEVVFNALPGQVFHGKLTSILPVVPGGSYQAQGVLQSLTVVPGTDGVLGTIELDPNDDIDALPDGIYAQVAVYSDHFSHVSVMRKVLLRMTSWMHYLYLDH [P0AFV0] | 3.52 h |  |  |  |  |  |  |  |  |  |  |  |
| MDRFPRSDSIVQPRAGLQTYMAQVYGWMTVGLLLTAFVAWYAANSAAVMELLFTNRVFLIGLIIAQLALVIVLSAMIQKLSAGVTTMLFMLYSALTGLTLSSIFIVYTAASIASTFVVTAGMFGAMSLYGYTTKRDLSGFGNMLFMALIGIVLASLVNFWLKSEALMWAVTYIGVIVFVGLTAYDTQKLKNMGEQIDTRDTSNLRKYSILGALTLYLDFINLFLMLLRIFGNRR [P0AAC4] |  | 3.08 h |  | 2.51 h | 2.75 h | 2.15 ± 0.5 h | 2.98 h | 6.02 h | 3.09 h | 5.33 h | 3.85 ± 0.28 h | 6.88 ± 0.24 h |
| MDWLAKYWWILVIVFLVGVLLNVIKDLKRVDHKKFLANKPELPPHRDFNDKWDDDDDWPKKDQPKK [Q2EET2] | 4.44 ± 0.075 h | 4.57 ± 1.7 h |  | 5.94 ± 1.8 h | 4.97 ± 0.94 h | 3.28 ± 0.98 h | 5.63 ± 0.88 h | 6.37 h | 5.06 h | 9.68 ± 5.2 h | 3.81 h | 7.42 ± 0.16 h |
| MTDQAEKKHSAFWGVMVIAGTVIGGGMFALPVDLAGAWFFWGAFILIIAWFSMLHSGLLLLEANLNYPVGSSFNTITKDLIGNTWNIISGITVAFVLYILTYAYISANGAIISETISMNLGYHANPRIVGICTAIFVASVLWLSSLAASRITSLFLGLKIISFVIVFGSFFFQVDYSILRDATSSTAGTSYFPYIFMALPVCLASFGFHGNIPSLIICYGKRKDKLIKSVVFGSLLALVIYLFWLYCTMGNIPRESFKAIISSGGNVDSLVKSFLGTKQHGIIEFCLLVFSNLAVASSFFGVTLGLFDYLADLFKIDNSHGGRFKTVLLTFLPPALLYLIFPNGFIYGIGGAGLCATIWAVIIPAVLAIKARKKFPNQMFTVWGGNLIPAIVILFGITVILCWFGNVFNVLPKFG |  |  |  |  |  | 3.24 ± 0.27 h | 5.07 ± 1.3 h | 11 h |  |  |  |  |

— the supplement of paper PMC11246515
